Where “and” joins values, the source holds several entries; their conditions need not be identical. Equal entries are not always repeated. Where two headings read alike, the source gives them in different places.
Key:
[1] = target: SARS-CoV-2 Spike (SARS-CoV-2), P0DTC2; experiment: inhibitor screening kit; ACE2:SARS-CoV-2 Spike (Example 4 assay)
[2] = target: SARS-CoV-2 Spike (SARS-CoV-2), P0DTC2; experiment: inhibitor screening kit; SARS-CoV-2 Spike:ACE2 (Example 3 assay)
[3] = target: ACE2, Q9BYF1
[4] = target: ACE2, Q9BYF1; experiment: inhibitor screening kit, ADGN-106 nanoparticles (Example 6, section A)
[5] = target: SARS-CoV-2 Spike (SARS-CoV-2), P0DTC2
[6] = target: SARS-CoV-2 Spike (SARS-CoV-2), P0DTC2; experiment: ACE2:SARS-CoV-2 Spike inhibitor screening kit (Example 3)
[7] = target: SARS-CoV-2 Spike (SARS-CoV-2), P0DTC2; experiment: SARS-CoV-2 Spike:ACE2 inhibitor screening kit (Example 4)
[8] = target: ACE2, Q9BYF1; experiment: inhibitor screening kit, ADGN-106 nanoparticles (Example 6, section B)
[9] = target: SARS-CoV-2 Spike (SARS-CoV-2), P0DTC2; experiment: ACE2:SARS-CoV-2 Spike kit, ACE2 on plate, Spike-Fc added; competitor ACE2
[10] = target: SARS-CoV-2 Spike (SARS-CoV-2), P0DTC2; experiment: SARS-CoV-2 Spike:ACE2 inhibitor screening kit (Example 4); Table 7 prints 38.6
[11] = target: SARS-CoV-2 Spike (SARS-CoV-2), P0DTC2; remark: listed apart in the source

Sequence of ACE2, Q9BYF1 (Q9BYF1 18-740 limits assumed): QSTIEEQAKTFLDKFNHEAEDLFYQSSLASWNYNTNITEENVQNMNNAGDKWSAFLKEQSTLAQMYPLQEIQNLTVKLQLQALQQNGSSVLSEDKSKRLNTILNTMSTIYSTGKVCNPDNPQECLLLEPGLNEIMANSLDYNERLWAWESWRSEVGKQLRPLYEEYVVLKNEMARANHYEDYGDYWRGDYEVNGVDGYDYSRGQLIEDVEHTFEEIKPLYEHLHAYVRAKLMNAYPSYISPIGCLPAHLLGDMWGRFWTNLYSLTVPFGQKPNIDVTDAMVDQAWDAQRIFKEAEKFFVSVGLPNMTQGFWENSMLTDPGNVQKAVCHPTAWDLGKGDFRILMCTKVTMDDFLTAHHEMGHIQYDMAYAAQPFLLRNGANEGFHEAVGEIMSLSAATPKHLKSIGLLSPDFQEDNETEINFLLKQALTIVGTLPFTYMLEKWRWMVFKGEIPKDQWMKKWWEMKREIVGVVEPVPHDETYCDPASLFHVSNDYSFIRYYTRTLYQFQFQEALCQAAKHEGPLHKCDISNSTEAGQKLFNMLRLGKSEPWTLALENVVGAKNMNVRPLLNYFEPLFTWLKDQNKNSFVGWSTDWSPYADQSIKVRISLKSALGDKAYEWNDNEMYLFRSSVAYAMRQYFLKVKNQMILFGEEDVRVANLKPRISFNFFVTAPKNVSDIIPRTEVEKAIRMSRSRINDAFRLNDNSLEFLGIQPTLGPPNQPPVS

KTFLDKFNHEAEDLFLWRALWRLWRSLWRLLWK (modifications not checked) [Seq34 (LNCOV-25)]
IC50 [1]: > 1000 nM | IC50 [2]: > 1000 nM

B1: Seq20 (LNCOV-24)/ADGN-106 nanoparticle complex (peptide)
peptide 1: SYGFQPTNGVLWRALWRLWRSLWRLLWK
peptide 2: LWRALWRLWRSLWRLLWK
modifications: not checked
IC50 [3]: 3.7 nM and 8.7 nM | fold more potent than SBP-1-ADGN-106/ADGN-106 complex [4]: 6 fold | fold more potent than SBP-1 peptide/ADGN-106 complex [4]: 40 fold

B2: Seq38 (LNCOV-30)/ADGN-106 nanoparticle complex (protein)
peptide 1: NMTQGFWENPGGPTAWDLGKLWRALWRLWRSLWRLLWK
peptide 2: LWRALWRLWRSLWRLLWK
modifications: not checked
IC50 [5]: 91.4 nM and 49.7 nM

EQAKTFLDKFNHEAEDLFPKWSAFLKEQSTLAQMYG (modifications not checked) [Seq27 (LNCOV-27)]
IC50 [6]: 50 nM | fold more potent than SBP-1 coupled to ADGN-106 [6]: 6 fold | fold more potent than free SBP-1 [6]: 15 fold | fold more potent than SBP-1 coupled to ADGN-106 [7]: 3.5 fold | fold more potent than free SBP-1 [7]: 7 fold | IC50 [1]: 37.4 nM | IC50 [2]: 66.1 nM

B3: Seq35 (LNCOV-26)/ADGN-106 nanoparticle complex (protein)
peptide 1: KTFLDKFNHEAEDLFYSLWRALWRLWRSLWRLLWK
peptide 2: LWRALWRLWRSLWRLLWK
modifications: not checked
IC50 [5]: 217 nM and 55.4 nM

KTFLDKFNHEAEDLFYSLWRALWRLWRSLWRLLWK (modifications not checked) [Seq35 (LNCOV-26)]
IC50 [1]: 728 nM | IC50 [2]: 546 nM

B4: Seq40 (LNCOV-32) (peptide)
peptide: KTFLDKFNHEAEDLFPKWSAFLKEQSTLAQMYGLWRALWRLWRSLWRLLWK
modifications: not checked
fold increase of efficiency over the uncoupled peptide (Seq27/Seq28) [6]: 1.4 fold | IC50 [1]: 85.4 nM | IC50 [2]: 45.1 nM

KTFLDKFNHEAEDLFYS (modifications not checked) [Seq26 (LNCOV-34)]
IC50 [1]: 2100 nM | IC50 [2]: 1900 nM

NMTQGFWENPGGPTAWDLGK (modifications not checked) [Seq31 (LNCOV-37)]
IC50 [6]: 25000 nM | IC50 [7]: 25 µM | IC50 [1]: > 10000 nM | IC50 [2]: > 10000 nM

TAWDLGKGDFRILWRALWRLWRSLWRLLWK (modifications not checked) [Seq36 (LNCOV-28)]
IC50 [1]: > 1000 nM | IC50 [2]: > 1000 nM

TAWDLGKGDFRI (modifications not checked) [Seq29 (LNCOV-35)]
IC50 [1]: > 10000 nM | IC50 [2]: > 10000 nM

B5: Seq21 (LNCOV-13)/ADGN-106 nanoparticle complex (peptide)
peptide 1: GFQPTNGVKLWRALWRLWRSLWRLLWK
peptide 2: LWRALWRLWRSLWRLLWK
modifications: not checked
IC50 [3]: 5.2 nM and 11.2 nM

B6: Seq39 (LNCOV-31) (peptide)
peptide: EQAKTFLDKFNHEAEDLFPKWSAFLKEQSTLAQMYGLWRALWRLWRSLWRLLWK
modifications: not checked
fold increase of efficiency over the uncoupled peptide (Seq27/Seq28) [6]: 1.4 fold | IC50 [1]: 68.4 nM | IC50 [2]: 55.2 nM

B7: Seq17 (LNCOV-15)/ADGN-106 nanoparticle complex (peptide)
peptide 1: NGVEGFNKLWRALWRLWRSLWRLLWK
peptide 2: LWRALWRLWRSLWRLLWK
modifications: not checked
IC50 [3]: 3.4 nM and 2.7 nM | fold more potent than SBP-1-ADGN-106/ADGN-106 complex [4]: 6 fold | fold more potent than SBP-1 peptide/ADGN-106 complex [4]: 40 fold | fold more potent than SBP-1-ADGN-106/ADGN-106 complex [8]: 4 fold | fold more potent than SBP-1 peptide/ADGN-106 complex [8]: 35 fold

KTFLDKFNHEAEDLF (modifications not checked) [Seq25 (LNCOV-33)]
IC50 [1]: 1900 nM | IC50 [2]: 2500 nM

KTFLDKFNHEAEDLFPGPKWSAFLKEQSTLAQMYG (modifications not checked) [Seq28 (LNCOV-20)]
IC50 [6]: 50 nM | fold more potent than SBP-1 coupled to ADGN-106 [6]: 6 fold | fold more potent than free SBP-1 [6]: 15 fold | fold more potent than SBP-1 coupled to ADGN-106 [7]: 3.5 fold | fold more potent than free SBP-1 [7]: 7 fold | IC50 [9]: 38.6 nM | IC50 [1]: 38.6 nM | IC50 [2]: 58.7 nM | IC50 [10]: 38.5 nM

EQAKTFLDKFNHEAEDLF (modifications not checked) [Seq24 (LNCOV-19)]
IC50 [11]: 570 µM | IC50 [7]: 0.57 µM | IC50 [2]: 1300 nM

B8: Seq32 (LNCOV-21)/ADGN-106 nanoparticle complex (protein)
peptide 1: IEEQAKTFLDKFNHEAEDLFYQSLWRALWRLWRSLWRLLWK
peptide 2: LWRALWRLWRSLWRLLWK
modifications: not checked
IC50 [5]: 24.5 nM and 7.2 nM

EQAKTFLDKFNHEAEDLFLWRALWRLWRSLWRLLWK (modifications not checked) [Seq33 (LNCOV-18)]
fold more potent than SBP-1 coupled to ADGN-106 [7]: 8 fold | fold more potent than free SBP-1 [7]: 14 fold | IC50 [9]: 18.4 nM | IC50 [1]: 18.4 nM | IC50 [2]: 178 nM

NMTQGFWENSMLTD (modifications not checked) [Seq30 (LNCOV-36)]
IC50 [1]: > 10000 nM | IC50 [2]: > 10000 nM

NMTQGFWENSMLTDLWRALWRLWRSLWRLLWK (modifications not checked) [Seq37 (LNCOV-29)]
IC50 [1]: 645 nM | IC50 [2]: > 1000 nM

From patent US20230304010A1, “COMPOSITIONS AND METHODS FOR TREATING VIRAL INFECTIONS” (priority 2020, published 2023)
